test: soluble on expression in E. coli; label from the status in PepcDB or PDB records

| Sequence | soluble on expression in E. coli |
| --- | --- |
| GPGSTGRSQATRTQERQEGRKKDMESKGTPTTRHPHVLTTARRKKETLWHGTPKRQTNPTTAVASKSEVVATSPHDGGSGRLPEDSQEATDEVVTLSSASSPLSRTLDGSCMPFAPPLGSDMAVTVACGPVNRTSLLSTEEKTAHAILGQADAMTDRRRSEEMLYYLEAARALREVTSGVEAREQCLRDEIERQSTLYSAKKLDLAEKQKVYERLHESTLRLTRNVRRIDSENDRIRDRLTKLQMTIEKMESRKLPRHIQQDVDRVVRCESVPSWQGANQRVGGCEAIVPMRSVGSVAKNTLMTELEMYTRKLRSAEVRHDKLIKELQLAVARRKGRAAAYNSFGASLSFSGYSGMGNRDGSFLTDSVGESIAIQQLERMIDDSLIRCK | not soluble |
| GPHMGGSMFSWLKKGGARGQRPEAIRTVTSSLKELYRTKLLPLEEHYRFGSFHSPALEDADFDGKPMVLVAGQYSTGKTSFIQYLLEQEVPGSRVGPEPTTDCFVAVMHGETEGTVPGNALVVDPEKPFRKLNPFGNTFLNRFMCAQLPNQVLESISIIDTPGILSGAKQRVSRGYDFPAVLRWFAERVDLIILLFDAHKLEISDEFSEAIGALRGHEDKIRVVLNKADMVETQQLMRVYGALMWALGKVVGTPEVLRVYIGSFWSQPLLVPDNRRLFELEEQDLFRDIQGLPRHAALRKLNDLVKRARLVRVHAYIISYLKKEMPTVFGKENKKKQLILKLPVIFAKIQLEHHISPGDFPDCQKMQELLMAHDFTKFHSLKPKLLEALDDMLAQDIAKLMPLLRQEELESVEAGVAGGAFEGTRMGPFVERGPDEAIEDGEEGSEDDAEWVVTKDKSKYDEIFYNLAPADGKLSGSKAKTWMVGTKLPNSVLGRIWKLSDVDRDGMLDDEEFALASHLIEAKLEGHGLPTNLPRRLVPPSKRRQKGSAE | soluble |
| GPHMVIRAEKMEAVTHLAASISHEIRNPLTAARGFIQLIEEQPLAADKRRQYARIAIEELDRAEAIITDYLTFAKPAPETPEKLNVKLEIERVIDILRPLANMSCVDIQATLAPFSVIGEREKFRQCLLNVMKNAIEAMPNGGTLQVYVSIDNGRVLIRIADTGVGMTKEQLERLGEPYFTTKGVKGTGLGMMVVYRIIESMNGTIRIESEIHKGTTVSIYLPLASSPSSSTISDKEKQLFAAL | soluble |
| GPLGSKDTRPQTDDVLNTKGNTFEDFYLKRELLMGIFEAGFEKPSPIQEEAIPVAITGRDILARAKNGTGKTAAFVIPTLEKVKPKLNKIQALIMVPTRELALQTSQVVRTLGKHCGISCMVTTGGTNLRDDILRLNETVHILVGTPGRVLDLASRKVADLSDCSLFIMDEADKMLSRDFKTIIEQILSFLPPTHQSLLFSATFPLTVKEFMVKHLHKPYEINLMEELTLKGITQYYAFVEERQKLHCLNTLFSKLQINQAIIFCNSTNRVELLAKKITDLGYSCYYSHARMKQQERNKVFHEFRQGKVRTLVCSDLLTRGIDIQAVNVVINFDFPKTAETYLHRIGRSGRFGHLGLAINLINWNDRFNLYKIEQELGTEIAAIPATIDKSLYVAENDET | soluble |
| GPLGSNEEANRFANQAKLRVQEAVFYIWSDKTLKYSQMANDEAESFRNTWLLFRSFQQWITLTQTFKEQSRLADQAFLNKMFRKILKAQEHWKH | soluble |
| GPSDMYVHVGNLIYRNLHLFNSEMHESILVSYSSDLIIYRTNTVGDDYIPSCDCTQATYYCKHKNRYFPITVTSHDWYEIQESEYYPKHIQYNLLIGEGPCEPGDCGGKLLCKHGVIGIVTAGGDNHVAFIDLRHFHCAEEQ | soluble |
| GRVESVWDLKGVWADQAQSDSQGSTTTATRNALPEHPNALAFQVSVVEASAYKPNTSSGQTQSTNSSPYLHLVKPKKVTQSDKLDDDLKNLLDPNQVRTKLRQSFGTDHSTQPQPQSLKTTTPVFGTSSGNLSSVLSGGGAGGGSSGSGQSGVDLSPVEKVSGWLVGQLPSTSDGNTSSTNNLAPNTNTGNDVVGVGRLSESNAAKMNDDVDGIVRTPLAELLDGEGQTADTGPQSVKFKSPDQIDFNRLFTHPVTDLFDPVTMLVYDQYIPLFIDIPASVNPKMVRLKVLSFDTNEQSLGLRLEFFKPDQDTQPNNNVQVNPNNGDFLPLLTASSQGPQTLFSPF | soluble |
| GRYTQIRFDEDIKRPFPELQQEFLSLLRKSVSEAVQGQKAGTFLSGGTDSSTLAGILTEVTGEPAKTYSIGFEATGYDEMHYARIAARHFATDHHEYYVTPDDVVETIPLIASVFDQPFGNASALPAYYCGRMARNDGLDLLLGGDGGDELFGGNVRYAKQYIFSLYDKIPAPLRNYLLSPFILSLPENKGPKLLRKARSYVAQATVPMPHRMETYNLLAHYGFETVFSPELLAKIDTAQPALLIERTYQDVSHARSLINRMLAFDWKFTLADNDFPKVVQACHLAGMEVAFPFVNDEILAFSLALPPEQKLKGTQLRYFFKQALRGFLPDEIITKQKQGFGLPFGVWLQTHRPLREIAADSLSDLKSRNIIRTDFIDQLLDQHLHEHASYHGTMVWLLMMLEYWFKQH | not soluble |
| GSDGTREFLTFEVPLNDSGSAGLGVSVKGNRSKENHADLGIFVKSIINGGAASKDGRLRVNDQLIAVNGESLLGKANQEAMETLRRSMSTEGNKRGMIQLIVARRISRCNE | soluble |
| GSGAVSIASSKVSAQYTSTVPPSHYIETWAKTHPEWKAVEVATGFLGSQKIVTEDWTYKKLNETANQVANLIIHASLHGRAIAVSLDRSLIAFAIIVGIMKSGNTYVPIEAGLPNDRKSFLLRDSRAAMAFVCDNNFDGVELPPETKVLDTKNQSFIENLSTQDTSDILNNYPENLDAYLLYTSGSTGTPKGVRVSRHNLSSFSDAWGKLIGNVAPKSLELGGVGKFLCLASRAFDVHIGEMFLAWRFGLCAVTGERLSMLDDLPRTFRELGVTHAGIVPSLLDQTGLVPEDAPHLVYLGVGGEKMTPRTQQIWSSSDRVALVNVYGPTEVTIGCSAGRILPDSDTRCIGHPLGDSVAHVLAPGSNEHVKKGMAGELVIEGSLVANGYLNRPDAKGFCDINGRKMYRTGDIVRMDADSSILFLGRKDEQVKVRGQRLELGEVSEVIRSLSPTDIDVVTLLLNHPGTSKQFLVSFVASSGAAVRGELRWINENYKEINNSLRQACEQTLPAYMVPDFIIPISFIPLRDTSAKTDAKALEHMFHTLSLGELFGESSSLVNKPTT | soluble |
| GSHMAKTLKDLDGWQVIITDDQGRVIDDNNRRRSRKRGGENVFLKRISDGLSFGKGESVIFNDNVTETYSVYLIHEIRLNTLNNVVEIWVFSYLRWFELKPKLYYEQFRPDLIKEDHPLEFYKDKFFNEVNKSELYLTAELSEIWLKDFIAVGQILPESQWNDSSIDKIEDRDFLVRYACEPTAEKFVPIDIFQIIRRVKEMEPKQSDEYLKRVSVPVSGQKTNRQVMHKMG | soluble |
| GSHMAPGFTISFVNKTIIVTGGNRGIGLAFTRAVAAAGANVAVIYRSAADAVEVTEKVGKEFGVKTKAYQCDVSNTDIVTKTIQQIDADLGPISGLIANAGVSVVKPATELTHEDFAFVYDVNVFGVFNTCRAVAKLWLQKQQKGSIVVTSSMSSQIINQSSLNGSLTQVFYNSSKAACSNLVKGLAAEWASAGIRVNALSPGYVNTDQTAHMDKKIRDHQASNIPLNRFAQPEEMTGQAILLLSDHATYMTGGEYFIDGGQLIW | soluble |
| GSHMASMLPEETILDKLPKDFQERITSSKWKDRVEALEEFWDSVLSQTKKLKSTSQNYSNLLGIYGHIIQKDANIQAVALAAQSVELICDKLKTPGFSKDYVSLVFTPLLDRTKEKKPSVIEAIRKALLTICKYYDPLASSGRNEDMLKDILEHMKHKTPQIRMECTQLFNASMKEEKDGYSTLQRYLKDEVVPIVIQIVNDTQPAIRTIGFESFAILIKIFGMNTFVKTLEHLDNLKRKKIEETVKTL | soluble |
| GSHMSAGIGESRTELLTWLNGLLNLNYKKIEECGTGAAYCQIMDSIYGDLPMNRVKFNATAEYEFQTNYKILQSCFSRHGIEKTVYVDKLIRCKFQDNLEFLQWLKKHWIRHKDESVYDPDARRKYR | soluble |
| GSHMSRLLEDFRNQRYPNLQLRDLANHIVEFSQDQHGSRFIQQKLERATAAEKQMVFSEILAAAYSLMTDVFGNYVIQKFFEFGTPEQKNTLGMQVKGHVLQLALQMYGCRVIQKALESISPEQQQEIVHELDGHVLKCVKDQNGNHVVQKCIECVDPVALQFIINAFKGQVYSLSTHPYGCRVIQRILEHCTAEQTTPILDELHEHTEQLIQDQYGNYVIQHVLEHGKQEDKSILINSVRGKVLVLSQHKFASNVVEKCVTHATRGERTGLIDEVCTFNDNALHVMMKDQYANYVVQKMIDVSEPTQLKKLMTKIRKNMAAL | soluble |
| GSHMSSLEKRLGKNEYFIITKSSPVRAILNDFAANYSIPVFISSSVNDDFSGEIKNEKPVKVLEKLSKLYHLTWYYDENILYIYKTNEISRSIITPTYLDIDSLLKYLSDTISVNKNSCNVRKITTFNSIEVRGVPECIKYITSLSESLDKEAQSK | soluble |
| GSHMVPISFVFNRFPRMVRDLAKKMNKEVNFIMRGEDTELDRTFVEEIGEPLLHLLRNAIDHGIEPKEERIAKGKPPIGTLILSARHEGNNVVIEVEDDGRGIDKEKIIRKAIEKGLIDESKAATLSDQEILNFLFVPGFSTKEKVSEVSGRGVGMDVVKNVVESLNGSISIESEKDKGTKVTIRLPLTLAIIQALLVKVNNLVYAIPIANIDTILSISKEDIQRVQDRDVIVIRGEVIPVYRLWEVLQIEHKEELEEMEAVIVRVGNRKYGIVVDDLLGQDDIVIKSLGKVFSEVKEFSGAAILGDGSIALIINVSGIV | soluble |
| GSHNSHMKLQEVEIRNKDLEGQLSEMEQRLEKSQSEQDAFRSNLKTLLEILDGKIFELTELRDNLAKLLECS | soluble |
| GSLPEVLQAPVGSSILVQCHYRLQDVKAQKVWCRFLPEGCQPLVSSAVDRRAPAGRRTFLTDLGGGLLQVEMVTLQEEDAGEYGCMVDGARGPQILHRVSLNILPP | soluble |
| GSMDQNTTEPVAATETLAEVPEHVLRGLPEEVRLFPSAVDKTRIGVWATKPILKGKKFGPFVGDKKKRSQVKNNVYMWEVYYPNLGWMCIDATDPEKGNWLRYVNWACSGEEQNLFPLEINRAIYYKTLKPIAPGEELLVWYDGEDNPEIAAAIEEERASARS | soluble |
| GSMNPEEKTVMLYNEYAEQAVLGSILTEPELIKECPLTPEHFSPGKHFNIYFTMQDLDRKGQSVDFTSIAARVGEKLPQLGGFGYLTELAASVASTTTFKQHCQTVSEYFQKRKAISIAQQIIENVNESDDGPVKPIQEAVSELMEIEASGTDDDDGSIDEALVTVYEEIESADGNITGVPSGFTELDRMTYGYKRRNFVLIAARPSMGKTAFALKQAKNMSDNDDVVNLHSLEMGKKENIKRLIVTAGSINAQKIKAARRDFASEDWGKLSMAIGEISNSNINIFDKAGQSVNYIWSKTRQTKRKNPGKRVIVMIDYLQLLEPAKANDSRTNQISQISRDLKKMARELDVVVIALSQLSRQVEQRQDKRPMLSDLRESGQLEQDADIIEFLYRDDYYDKESESKNIVEVIIAKHRDGPVGTVSLAFIKEYGNFVNLERRFDDR | soluble |
| GSMTDGDYDYLIKLLALGDSGVGKTTFLYRYTDNKFNPKFITTVGIDFREKRVVYDTQGADGASGKAFKVHLQLWDTAGLERFRSLTTAFFRDAMGFLLMFDLTSQQSFLNVRNWMSQLQANAYCENPDIVLIGNKADLPDQREVNERQARELAEKYGIPYFETSAATGQNVEKSVETLLDLIMKRMEKCVEKTQVPDTVNGGNSGKLDGEKPAEKKCAC | soluble |
| GSMYQLQFINLVYDTTKLTHLEQTNINLFIGNWSNHQLQKSICIRHGDDTSHNQYHILFIDTAHQRIKFSSFDNEEIIYILDYDDTQHILMQTSSKQGIGTSRPIVYERLV | soluble |
| GSPDPEIFRQRFRQFGYQDSPGPREAVSQLRELCRLWLRPETHTKEQILELVVLEQFVAILPKELQTWVRDHHPENGEEAVTVLEDLESELDD | soluble |
